Molecular target: the molecule itself
Test: crystal structure

B1: NM23-H2 R88A mutant (enzyme, human)
chain: ANLERTFIAIKPDGVQRGLVGEIIKRFEQKGFRLVAMKFLRASEEHLKQHYIDLKDRPFFPGLVKYMNSGPVVAMVWEGLNVVKTGAVMLGETNPADSKPGTIRGDFCIQVGRNIIHGSDSVKSAEKEISLWFKPEELVDYKSCAHDWVYE
- stoichiometry N: 6
